{"source": "the DeepSol protein solubility set"}
{"assay": "soluble on expression in E. coli; label from the status in PepcDB or PDB records"}
{"sequence": "MKVLTVFGTRPEAIKMAPLVHALAKDPFFEAKVCVTAQHREMLDQVLKLFSIVPDYDLNIMQPGQGLTEITCRILEGLKPILAEFKPDVVLVHGDTTTTLATSLAAFYQRIPVGHVEAGLRTGDLYSPWPEEANRTLTGHLAMYHFSPTETSRQNLLRENVADSRIFITGNTVIDALLWVRDQVMSSDKLRSELAANYPFIDPDKKMILVTGHRRESFGRGFEEICHALADIATTHQDIQIVYPVHLNPNVREPVNRILGHVKNVILIDPQEYLPFVWLMNHAWLILTDSGGIQEEAPSLGKPVLVMRDTTERPEAVTAGTVRLVGTDKQRIVEEVTRLLKDENEYQAMSRAHNPYGDGQACSRILEALKNNRISLGSHHHHHH", "soluble on expression in E. coli": "soluble"}
{"sequence": "MKVLVVGNGGREHAIAWKVAQSPLVKELYVAKGNAGIWEIAKRVDISPTDVEKLAEFAKNEGVDFTIVGPEAPLVEGIVDEFEKRGLKIFGPNKEAAKLEGSKAFAKTFMKKYGIPTARYEVFTDFEKAKEYVEKVGAPIVVKADGLAAGKGAVVCETVEKAIETLDRFLNKKIFGKSSERVVIEEFLEGEEASYIVMINGDRYVPLPTSQDHKRLLDEDKGPNTGGMGAYSPTPVINEEVEKRIREEIVERVIKGLKEEGIYYRGFLYAGLMITKEGPKVLEFNVRLGDPEAQPILMRVKNDFLETLLNFYEGKDVHIKEDERYALDVVLASRGYPEKPETGKIIHGLDYLKSMEDVVVFHAGTKKEGNFTVTSGGRVLNVCAYGKTLKEAKERAYEAIRYVCFEGMHYRKDIGDKAFKYLSE", "soluble on expression in E. coli": "soluble"}
{"sequence": "MKVMIEKILLVQTLKRLPRMGWLIKGVQEPESIADHSFGVAFITLVLADVLEKRGKRIDVEKALKMAIVHDLAEAIITDIPLSAQEFVDKDKAEALVFKKVFPEFYELYREYQECSSPEAQLVRIADKLDMILQAYQYELSGNKNLDEFWEAIEEIKRLELSKYLEDILNSVGRLKA", "soluble on expression in E. coli": "soluble"}
{"sequence": "MKVTQLSSETLDRAHERFEETLAQMTVAEANTMPAPLIKSVTWLMWHTARELDLQISALNHSDPLWLSQHWTEKFALDLPDETEDWHHTPEEAAKVVVAEKQLLSDYLAASVALTKSYLDQIKEEQLSDVIDKNWTPPVTRQVRLVSAIDDAVMHSGQAVYTRRLVIGK", "soluble on expression in E. coli": "soluble"}
{"sequence": "MKVVLATGNPGKVRELKEGLAPLGWTLLTLADFALRMPKEEGATFLENALLKAAYVAKATGLPALADDSGLEVYALGGEPGVYSARYGGRATDRERNVYLLERMRHLKGEERKARFVAVLVLAYPDGHAEAYEGSVEGVILEAPRGEGGFGYDPLFYVPEAGKTFAEMGLEEKARYSHRGKALRALLEAYKDGPPPREVSKLE", "soluble on expression in E. coli": "soluble"}
{"sequence": "MKVVLQRVTRAAVTVGDEVVGSIGRGLCVLVGVHRDDTEEDMKYIIRKILNLRVFPASEQKPWDKSVMDLDLEVLSVSQFTLYGQFKGNKLDFHTAMAPTEASKFYASFLEAMKKAYKADKIQDGKFAAMMSVDIVNDGPVTVTFDSKEK", "soluble on expression in E. coli": "not soluble"}
{"sequence": "MKYEVVITSGNSNQAPIGAFFKGDFVTLHLYGGSHTFENLQKDGFYILNTCSPYLIAKSVLDDAGDYEYLDNDGIKIPYLKDSYKIELIEIKSRKIVETKNEFGSSKLMIVEGKPIFEKILNCNTSAYNRADGAVVEMAVLYSRKNMISKEEINDEITRLMKIIKKVGSKNHIELAKKLGV", "soluble on expression in E. coli": "soluble"}
{"sequence": "MKYKAVLVDFGNTLVGFKPVFYEKVYQVLKDNGYDLDLRKVFRAYAKAMGMINYPDEDGLEHVDPKDFLYILGIYPSERLVKELKEADIRDGEAFLYDDTLEFLEGLKSNGYKLALVSNASPRVKTLLEKFDLKKYFDALALSYEIKAVKPNPKIFGFALAKVGYPAVHVGDIYELDYIGAKRSYVDPILLDRYDFYPDVRDRVKNLREALQKIEEMNKE", "soluble on expression in E. coli": "soluble"}
{"sequence": "MKYKKLLFDLIDYLDAFESLHDGGSHEPEIKDFADFLSWRCGKKKKQEEEVVSVTRERAAGAKNIARGVSLLHRYSRFYIKKALTESPLQTEDEYTYLVSLMNGESMTKTELNNLNAMEKTSGAEVMRRLLKANLIEQRPDEEDRRSMRVSITPEGRKVLVNLFPNLRLCAETLVSALSDEQLTAFDHLLWLLCECHNEMFTGKHDAELTDLHAETCGLKQSAGGALSKRLYRR", "soluble on expression in E. coli": "not soluble"}
{"sequence": "MKYQAAIFDMDGLLLDTERVCMRIFQEACEVQNLPFYEDVYLSIIGRNAAGIETIFRKAYGENLDRLHLEWRTRYNAVVKHQAIP", "soluble on expression in E. coli": "not soluble"}
{"sequence": "MKYSLCTISFRHQLISFTDIVQFAYENGFEGIELWGTHAQNLYMQEYETTERELNCLKDKTLEITMISDYLDISLSADFEKTIEKCEQLAILANWFKTNKIRTFAGQKGSADFSQQERQEYVNRIRMICELFAQHNMYVLLETHPNTLTDTLPSTLELLGEVDHPNLKINLDFLHIWESGADPVDSFQQLRPWIQHYHFKNISSADYLHVFEPNNVYAAAGNRTGMVPLFEGIVNYDEIIQEVRDTDHFASLEWFGHNAKDILKAEMKVLTNRNLEVVTSENLYFQ", "soluble on expression in E. coli": "soluble"}
{"sequence": "MLADPAQPEHVFIVEDSRGATELKLYKSHYTIGKADSCDIRLHSIYASRQHATLVRFLTENGEVRYRLIDGDPETSRRSANGTYVNNRSITECDLKHYDQILFGADVKATYFYLSPQFRSLEHHHHHH", "soluble on expression in E. coli": "not soluble"}
{"sequence": "MLAERLVNDYDVEVLTTCVKNYVTGDNEYPEGEEILNGVLVRRFYSDPVEPDLHKSYVRQAAPAKKWRHFLYRCRLLKPLSYVKPIWHYKEQEEIKALNSQVFYSSSMYAFIRENKASYRAFIPLSFFPHTYYTALYAPEKTILIPTMHNNGSSFRSIITSVFSEVAYIGFNIEAEQKLVENIVGKPLAAHGIISVGIEKTKAADWEQTKVKYNLPEDYLLYVGRIDAIKLNNIVDYFLSYKKKYVGSRLKLVLVGGIFGKTVEHPDIIYTGFVDDAEKVAIQLNAKVIVNPSRYESLSLILLETMSEGKAMLVNGRCNVLREHCEKSNYAALYYMNRRDFMRKLHNLENSETLRQQMGEKGRHYVQENYNWEMIIGRMKNVIQMLS", "soluble on expression in E. coli": "not soluble"}
{"sequence": "MLALGIEGTAHTLGIGIVSEDKVLANVFDTLTTEKGGIHPKEAAEHHARLMKPLLRKALSEAGVSLDDIDVIAFSQGPGLGPALRVVATAARALAVKYRKPIVGVNHCIAHVEITKMFGVKDPVGLYVSGGNTQVLALEGGRYRVFGETLDIGIGNAIDVFARELGLGFPGGPKVEKLAEKGEKYIELPYAVKGMDLSFSGLLTEAIRKYRSGKYRVEDLAYSFQETAFAALVEVTERAVAHTEKDEVVLVGGVAANNRLREMLRIMTEDRGIKFFVPPYDLCRDNGAMIAYTGLRMYKAGISFRLEETIVKQKFRTDEVEIVWHHHHHH", "soluble on expression in E. coli": "soluble"}
{"sequence": "MLAPERIHPALWRATQLAHGPTRKLPTGYADLSAQLPGGGWPLGALVELLLPQPGSGEIRLLRPALAQLEARRAIALVQPPHAPHIASWASWRLDPRQLLWVAPERPADALWAAEQILKAGSCAALLCWLPQVRPESLRRLHLAAQGGDALFVALRPAAAEQHASPAVLRLALAPAPGGLSIRIVKRRGPACEHPVHVGLEAGAGLSVFPAPHAPLDRRLPAQPVAGRRTPALVSLEHHHHHH", "soluble on expression in E. coli": "not soluble"}
{"sequence": "MLCCPDPRRRGQHNNRRRNAMPKLHESRIHDLRPTQLTVGMIEVQAKKTHLAAMAPADQQAFMQAHPIPAVLGPGGQLYITDHHHLGRAALDAGVITGYFMVEADLSQHSLDDFWKAMDQNLWVHPLDEHGVRHYYASIPKHLEKLVDDPYRSLAGYVRDAGGYDKTPTAFAEFVWADFFRRSIPIEDLLADFQAAVHAALPLAKSKFAKALPGYNGKLEHHHHHH", "soluble on expression in E. coli": "not soluble"}
{"sequence": "MLDGLVVGGGLAGLTAARVLTRAGRRVRVLEAAPEVGGRVRSRELEGFTLDAGFQVLFPAYPAVRRQLNLDALDLVPLPSAAALRRGAREDVLGSPLDDLASLPSTLKSGALTLGDKLRVARLAASLRTPAAHELLIGSDESTESFLRGQGFSEAALDHFFRPFFGGIFLRRDLATSARLFRYYFRMLMDGGAALPRRGMGELSRQLAQGSDLLTGVRVSRLLPRPGYVTAVTSAGEIDARQVIVATEAPTASDLTGEALSRGALSSTYLYYATPQRISGQHRLLLNAETGLINNAQWTSLAVPGRAPTGQHLLTVTVLGLPDLDDASLDARVRGELTRWYGAEAVGTLRLLMLERIPYAQFEQPAGYAATLPGHATSLPGVLLASEITSMSGIQGALESGEKAAAIVLGDLAALSRPRGALEHHHHHH", "soluble on expression in E. coli": "not soluble"}
